Assay [1] has as its target T1, GDF15 (ligand used in the GFRAL/RET cell assays) (UniProt Q99988 197-308, limits assumed).
T1 sequence (looked up): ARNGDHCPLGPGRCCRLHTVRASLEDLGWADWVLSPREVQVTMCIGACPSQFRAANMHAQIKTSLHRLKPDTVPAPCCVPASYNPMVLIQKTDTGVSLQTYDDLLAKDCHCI
Kind of assay: cell-based or functional assay.

Assay [2] concerns the target GDF8 (UniProt O14793 267-375). Kind of assay: BLI Octet; IgG on sensor. For orientation: In BLI a coated tip is dipped into the sample, and binding shifts an interference pattern.
Assay [3] has as its target T2, GDF10 (UniProt P55107 369-478).
T2 sequence (looked up): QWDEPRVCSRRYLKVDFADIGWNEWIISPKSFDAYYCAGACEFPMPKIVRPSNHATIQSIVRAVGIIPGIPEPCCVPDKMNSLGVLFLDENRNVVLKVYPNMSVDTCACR
Kind of assay: BLI Octet; IgG on sensor.

The target of assay [4] is T3, GDF11 (UniProt O95390 299-407).
T3 construct: Also used as ligand in the Activin 2B receptor/SMAD reporter assay
Kind of assay: BLI Octet; IgG on sensor.

The target in assay [5] is T4, Human Activin A Fc (human, UniProt P08476 311-426).
T4 construct: not shown: Fc part
T4 sequence (looked up): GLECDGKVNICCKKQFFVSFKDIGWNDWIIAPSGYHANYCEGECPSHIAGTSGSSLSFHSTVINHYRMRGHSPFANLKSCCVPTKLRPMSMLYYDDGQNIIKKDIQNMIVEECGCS
Kind of assay: BLI Octet; IgG on sensor.

Assay [6] addresses T5, Human Activin B (human, UniProt P09529 293-407).
T5 sequence (looked up): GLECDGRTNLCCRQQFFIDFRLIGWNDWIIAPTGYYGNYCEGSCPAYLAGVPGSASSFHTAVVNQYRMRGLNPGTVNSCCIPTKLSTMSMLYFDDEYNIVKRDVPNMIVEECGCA
Kind of assay: BLI Octet; IgG on sensor.

For assay [7], the target named is T6, Human BMP9 (human, UniProt Q9UK05 320-429).
T6 sequence (looked up): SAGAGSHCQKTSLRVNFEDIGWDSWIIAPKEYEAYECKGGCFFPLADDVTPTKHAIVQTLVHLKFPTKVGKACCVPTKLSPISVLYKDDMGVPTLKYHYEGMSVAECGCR
Kind of assay: BLI Octet; IgG on sensor.

Assay [8] has as its target T7, Human BMP10 (human, UniProt O95393 317-424).
T7 sequence (looked up): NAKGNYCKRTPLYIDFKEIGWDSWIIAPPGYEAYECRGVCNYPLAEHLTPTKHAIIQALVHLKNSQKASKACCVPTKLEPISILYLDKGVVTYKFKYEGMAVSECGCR
As to the kind of experiment: BLI Octet; IgG on sensor.

Assay [9] concerns the target T8, Human GDF15 Fc (human, UniProt Q99988 195-308, limits assumed, biotinylated (EZ-Link Sulfo-NHS-Biotinylation Kit) in the SPR assay).
T8 construct: also called human GDF15-Fc fusion; biotinylated Human GDF15 Fc; not shown: Fc part
T8 sequence: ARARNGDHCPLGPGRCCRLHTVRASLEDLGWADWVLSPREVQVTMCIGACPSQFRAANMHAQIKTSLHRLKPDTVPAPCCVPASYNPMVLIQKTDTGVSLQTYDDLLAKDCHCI
As to the kind of experiment: BLI Octet; IgG on sensor, 100 nM antigen (avid). Here is the method:
Briefly, ForteBio affinity measurements were performed by loading IgGs on-line onto AHC sensors. Sensors were equilibrated off-line in assay buffer for 30 min and then monitored on-line for 60 seconds for baseline establishment. Sensors with loaded IgGs were exposed to 100 nM antigen for 3 minutes, and afterwards were transferred to assay buffer for 3 min for off-rate measurement. All kinetics were analyzed using the 1:1 binding model.

The target of assay [10] is T9, GDNF (UniProt P39905 78-211).
T9 sequence (looked up): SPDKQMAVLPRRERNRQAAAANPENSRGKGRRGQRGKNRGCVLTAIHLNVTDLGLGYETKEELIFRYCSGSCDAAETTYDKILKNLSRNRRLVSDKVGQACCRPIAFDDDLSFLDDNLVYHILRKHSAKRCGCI
As to the kind of experiment: BLI Octet; IgG on sensor, 100 nM antigen (avid).

Assay [11] concerns the target T9, GDNF. As to the kind of experiment: BLI Octet; IgG on sensor.
Assay [12] deals with T5, Human Activin B. As to the kind of experiment: BLI Octet; IgG on sensor, 100 nM antigen (avid).
The target of assay [13] is T6, Human BMP9. Kind of assay: BLI Octet; IgG on sensor, 100 nM antigen (avid).
The target in assay [14] is T4, Human Activin A Fc. Kind of assay: BLI Octet; IgG on sensor, 100 nM antigen (avid).

T3 sequence (O95390 299-407 limits assumed): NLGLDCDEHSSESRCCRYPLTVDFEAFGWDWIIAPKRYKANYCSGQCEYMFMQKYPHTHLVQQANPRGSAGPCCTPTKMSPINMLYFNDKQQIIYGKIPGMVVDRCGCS

B1: GDF15 antibody agent Clone K, IgG (antibody, V domains shown)
VH: QVQLVQSGAEVKKPGASVKVSCKASGYTFTNEGISWVRQAPGQGLEWMGWISAYTADTFYAQKLQGRVTMTTDTSTSTAYMELRSLRSDDTAVYYCARTRHDTSGLRFDYWGQGTLVTVSS
VL: DIQMTQSPSSVSASVGDRVTITCRASQGIDSWLAWYQQKPGKAPKLLIYAASSLQSGVPSRFSGSGSGTDFTLTISSLQPEDFATYYCQQVHSFPITFGGGTKVEIKR
Take B1: in assay [1], the “GDF15-GFRAL RET pERK IC50 (pM)” value turned out to be 187 pM. Besides, the “GDF15-GFRAL-RET Luciferase IC50 (pM)” value in assay [1] amounted to 813 pM. For the same molecule, the binding result in [2], in assay [3], in assay [4], in [5], in [6] and in assay [7] was “no binding (tested: 100 nM)” in each case. In [8], the binding result is listed as “no binding (tested: 100 nM)”. Besides, the dissociation constant Kd (in general, the free concentration of one partner at which half of the binding sites on the other are occupied at equilibrium, for simple one-to-one binding) is 0.271 nM in [9] and 333 nM in [10].

B2: GDF15 antibody agent Clone L, IgG (antibody, V domains shown)
VH: QVQLVQSGAEVKKPGASVKVSCKASGYTFASYDIIWVRQAPGQGLEWMGWISALSGDTVYAQKLQGRVTMTTDTSTSTAYMELRSLRSDDTAVYYCARTRHDTSGIRFDYWGQGTLVTVSS
VL: DIQMTQSPSSVSASVGDRVTITCRASQGIDSWLAWYQQKPGKAPKLLIYAASSLQSGVPSRFSGSGSGTDFTLTISSLQPEDFATYYCQQVHSFPITFGGGTKVEIKR
Turning to B2, the “GDF15-GFRAL RET pERK IC50 (pM)” value in assay [1] amounted to 13.5 pM. Moreover, the “GDF15-GFRAL-RET Luciferase IC50 (pM)” value in [1] was 274 pM. In addition, the binding result in assay [2], in [3], in assay [4], in assay [5], in [6] and in assay [7] was “no binding (tested: 100 nM)” throughout. Moreover, the binding result in assay [8] is listed as “no binding (tested: 100 nM)”. For the same molecule, the dissociation constant (Kd) in assay [9] stood at 0.325 nM; in assay [10], 229 nM.

B3: GDF15 antibody agent Clone M, IgG (antibody, V domains shown)
VH: QVQLVQSGAEVKKPGASVKVSCKASGYTFDSYGINWVRQAPGQGLEWMGWISAYSGDTAYAQELQGRVTMTTDTSTSTAYMELRSLRSDDTAVYYCVRDTQYGGSPYWGQGTLVTVSS
VL: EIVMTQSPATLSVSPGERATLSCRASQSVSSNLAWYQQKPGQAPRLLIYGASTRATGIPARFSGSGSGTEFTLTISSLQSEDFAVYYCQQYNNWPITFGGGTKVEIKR
As to B3, in assay [1], the “GDF15-GFRAL RET pERK IC50 (pM)” value was 88.7 pM. Further, the binding result in assay [2], in [3], in [4], in [5], in assay [6] and in [7] was “no binding (tested: 100 nM)” in each case. In assay [8], the binding result is “no binding (tested: 100 nM)”. Also, the Kd in assay [9] worked out at 0.317 nM; in [10], 31.4 nM.

B4: GDF15 antibody agent Clone N, IgG (antibody, V domains shown)
VH: QVQLVQSGAEVKKPGASVKVSCKASGYTFTDYGIFWVRQAPGQGLEWMGWITAYSGDTHYAQKLQGRVTMTTDTSTSTAYMELRSLRSDDTAVYYCVRDTQYGGSPYWGQGTLVTVSS
VL: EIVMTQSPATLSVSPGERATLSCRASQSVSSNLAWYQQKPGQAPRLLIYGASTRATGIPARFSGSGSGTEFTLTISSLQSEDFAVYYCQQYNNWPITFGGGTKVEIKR
For the molecule B4, in assay [1], the “GDF15-GFRAL RET pERK IC50 (pM)” value is 99.7 pM. The binding result in assay [2], in assay [3], in assay [4], in assay [5], in assay [6] and in assay [7] was “no binding (tested: 100 nM)” throughout. For the same molecule, the binding result in assay [8] is recorded as “no binding (tested: 100 nM)”. In addition, the results for the Kd in assay [9] and in assay [10] were 0.336 nM and 2.56 nM, respectively.

B5: GDF15 antibody agent Clone B, IgG (antibody, V domains shown)
VH: QVQLQESGPGLVKPSQTLSLTCTVSGGSISSGGIYWTWIRQHPGKGLEWIGAIAYSGSTYYNPSLKSRVTISVDTSKNQFSLKLSSVTAADTAVYYCARGIEYQHFDYWGQGTLVTVSS
VL: not shown
As to B5, the “GDF15-GFRAL RET pERK IC50 (pM)” value in [1] amounted to 104 pM. The “GDF15-GFRAL-RET Luciferase IC50 (pM)” value in assay [1] came to 66.2 pM. Besides, the binding result was “no binding (tested: 100 nM)” in assay [11]; “no binding (tested: 100 nM)” in assay [2]; “no binding (tested: 100 nM)” in assay [3]; “no binding (tested: 100 nM)” in assay [4]; “binds” in assay [13]. Moreover, the dissociation constant Kd in assay [9] was 0.26 nM; in assay [12] it was 145 nM.

B6: GDF15 antibody agent Clone D, IgG (antibody, V domains shown)
VH: QVQLQESGPGLVKPSQTLSLTCTVSGGSINSGGYYWTWIRQHPGKGLEWIGAIYYSGSTVYNPSLKSRVTISVDTSKNQFSLKLSSVTAADTAVYYCARGVEYQHFNEWGQGTLVTVSS
VL: not shown
For the molecule B6, in [1], the “GDF15-GFRAL RET pERK IC50 (pM)” value came out at 50.4 pM. Besides, the “GDF15-GFRAL-RET Luciferase IC50 (pM)” value in assay [1] worked out at 58.7 pM. Further, the binding result in assay [11] was “no binding (tested: 100 nM)”; in assay [2], “no binding (tested: 100 nM)”; in assay [4] it was “no binding (tested: 100 nM)”; in assay [6], “no binding (tested: 100 nM)”; in assay [8] it was “no binding (tested: 100 nM)”; in [13], “binds”. In addition, the dissociation constant (Kd) in [9] amounted to 0.263 nM; in [14] it was 7.87 nM.

B7: GDF15 antibody agent Clone R, IgG (antibody, V domains shown)
VH: QVQLQESGPGLVKPSQTLSLTCTVSGGSISSGGIYWTWIRQHPGKGLEWIGAIAYSGSTYYNPSLESRVTISVDTSKNQFSLKLSSVTAADTAVYYCARGIEYQHFDYWGQGTLVTVSS
VL: not shown
For the molecule B7, the binding result is “no binding (tested: 100 nM)” in assay [11]; “no binding (tested: 100 nM)” in assay [2]; “no binding (tested: 100 nM)” in assay [3]; “no binding (tested: 100 nM)” in assay [4]; “binds” in [13]. Also, the dissociation constant Kd in assay [12] was found to be 188 nM.

B8: GDF15 antibody agent Clone Q, IgG (antibody, V domains shown)
VH: QVQLQESGPGLVKPSQTLSLTCTVSGGSISSGGIYWTWIRQHPGKGLEWIGAIAYSGSTYYNPSLKSRVTISVDTSKNQFSLKLSSVTAADTAVYYCARGIEYQHFDYWGQGTLVTVSS
VL: not shown
B8: the binding result in assay [11] was “no binding (tested: 100 nM)”; in assay [2], “no binding (tested: 100 nM)”; in assay [3] it was “no binding (tested: 100 nM)”; in assay [4], “no binding (tested: 100 nM)”; in [8] it was “no binding (tested: 100 nM)”; in [13], “binds”. The same molecule gave a dissociation constant (Kd) in assay [12] of 172 nM.

(Values after US20250382359A1 (BYOMASS, published 2025).)
